Measured values from the supplement of paper PMC10567573.

B1: STK38L (parent)
chain: FCIDSENRIGNSGVEEIKGHPFFE

Variants of: B1
Test: protein stability index of a GFP-peptide fusion (GPS, HEK-293T) (PSI 1-6); higher = more stable
Settings: c terminus: a fixed tail appended
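Note: lentivirally expressed fusions sorted by FACS into six bins by GFP to DsRed ratio, PSI derived from sequencing read proportions per bin multiplied by bin number.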

Variant | protein stability index
FFIDSENRIGNSGVEEIKGHPFFE [C2F] | 3.12
FMIDSENRIGNSGVEEIKGHPFFE [C2M] | 3.58
FRIDSENRIGNSGVEEIKGHPFFE [C2R] | 3
FVIDSENRIGNSGVEEIKGHPFFE [C2V] | 2.03
FSIDSENRIGNSGVEEIKGHPFFE [C2S] | 3.61
FDIDSENRIGNSGVEEIKGHPFFE [C2D] | 3.12
FQIDSENRIGNSGVEEIKGHPFFE [C2Q] | 2.33
FNIDSENRIGNSGVEEIKGHPFFE [C2N] | 2.93
FWIDSENRIGNSGVEEIKGHPFFE [C2W] | 2.62
FEIDSENRIGNSGVEEIKGHPFFE [C2E] | 4.7
FHIDSENRIGNSGVEEIKGHPFFE [C2H] | 1.99
FIIDSENRIGNSGVEEIKGHPFFE [C2I] | 2.69
FGIDSENRIGNSGVEEIKGHPFFE [C2G] | 4.21
FTIDSENRIGNSGVEEIKGHPFFE [C2T] | 3.25
FPIDSENRIGNSGVEEIKGHPFFE [C2P] | 2.39
FLIDSENRIGNSGVEEIKGHPFFE [C2L] | 2.94
FKIDSENRIGNSGVEEIKGHPFFE [C2K] | 3.37
FAIDSENRIGNSGVEEIKGHPFFE [C2A] | 2.58
FYIDSENRIGNSGVEEIKGHPFFE [C2Y] | 2.61
FCIDSENSIGNSGVEEIKGHPFFE [R8S] | 2.55
FCIDSENHIGNSGVEEIKGHPFFE [R8H] | 2.72
FCIDSENKIGNSGVEEIKGHPFFE [R8K] | 2.37
FCIDSENNIGNSGVEEIKGHPFFE [R8N] | 2.94
FCIDSENEIGNSGVEEIKGHPFFE [R8E] | 3.56

Variant | protein stability index
FCIDSENDIGNSGVEEIKGHPFFE [R8D] | 3.9
FCIDSENPIGNSGVEEIKGHPFFE [R8P] | 2.71
FCIDSENGIGNSGVEEIKGHPFFE [R8G] | 2.8
FCIDSENQIGNSGVEEIKGHPFFE [R8Q] | 2.83
FCIDSENFIGNSGVEEIKGHPFFE [R8F] | 2.45
FCIDSENLIGNSGVEEIKGHPFFE [R8L] | 2.34
FCIDSENIIGNSGVEEIKGHPFFE [R8I] | 2.79
FCIDSENAIGNSGVEEIKGHPFFE [R8A] | 2.67
FCIDSENTIGNSGVEEIKGHPFFE [R8T] | 3.15
FCIDSENMIGNSGVEEIKGHPFFE [R8M] | 2.67
FCIDSENCIGNSGVEEIKGHPFFE [R8C] | 2.17
FCIDSENYIGNSGVEEIKGHPFFE [R8Y] | 2.15
FCIDSENWIGNSGVEEIKGHPFFE [R8W] | 2.87
FCIDSENVIGNSGVEEIKGHPFFE [R8V] | 2.02
FCIDSEQRIGNSGVEEIKGHPFFE [N7Q] | 1.51
FCIDSETRIGNSGVEEIKGHPFFE [N7T] | 2.17
FCIDSELRIGNSGVEEIKGHPFFE [N7L] | 2.24
FCIDSEHRIGNSGVEEIKGHPFFE [N7H] | 1.91
FCIDSEDRIGNSGVEEIKGHPFFE [N7D] | 2.43
FCIDSEPRIGNSGVEEIKGHPFFE [N7P] | 2.21
FCIDSEKRIGNSGVEEIKGHPFFE [N7K] | 2.25
FCIDSECRIGNSGVEEIKGHPFFE [N7C] | 1.06
FCIDSEIRIGNSGVEEIKGHPFFE [N7I] | 1.58
FCIDSEVRIGNSGVEEIKGHPFFE [N7V] | 1.22

Variant | protein stability index
FCIDSERRIGNSGVEEIKGHPFFE [N7R] | 1.56
FCIDSESRIGNSGVEEIKGHPFFE [N7S] | 2.09
FCIDSEMRIGNSGVEEIKGHPFFE [N7M] | 2.71
FCIDSEERIGNSGVEEIKGHPFFE [N7E] | 2.87
FCIDSEWRIGNSGVEEIKGHPFFE [N7W] | 4.28
FCIDSEYRIGNSGVEEIKGHPFFE [N7Y] | 1.8
FCIDSEARIGNSGVEEIKGHPFFE [N7A] | 2.93
FCIDSEGRIGNSGVEEIKGHPFFE [N7G] | 2.26
KCIDSENRIGNSGVEEIKGHPFFE [F1K] | 4.3
SCIDSENRIGNSGVEEIKGHPFFE [F1S] | 4.34
MCIDSENRIGNSGVEEIKGHPFFE [F1M] | 4.78
GCIDSENRIGNSGVEEIKGHPFFE [F1G] | 4.26
YCIDSENRIGNSGVEEIKGHPFFE [F1Y] | 2.48
WCIDSENRIGNSGVEEIKGHPFFE [F1W] | 3.19
QCIDSENRIGNSGVEEIKGHPFFE [F1Q] | 4.91
NCIDSENRIGNSGVEEIKGHPFFE [F1N] | 4.4
TCIDSENRIGNSGVEEIKGHPFFE [F1T] | 4.42
ICIDSENRIGNSGVEEIKGHPFFE [F1I] | 3.24
LCIDSENRIGNSGVEEIKGHPFFE [F1L] | 3.66
CCIDSENRIGNSGVEEIKGHPFFE [F1C] | 2.84
DCIDSENRIGNSGVEEIKGHPFFE [F1D] | 4.9
ECIDSENRIGNSGVEEIKGHPFFE [F1E] | 4.61
HCIDSENRIGNSGVEEIKGHPFFE [F1H] | 4.55
ACIDSENRIGNSGVEEIKGHPFFE [F1A] | 4.85

Variant | protein stability index
VCIDSENRIGNSGVEEIKGHPFFE [F1V] | 3.77
PCIDSENRIGNSGVEEIKGHPFFE [F1P] | 4.45
RCIDSENRIGNSGVEEIKGHPFFE [F1R] | 5.09
FCIDPENRIGNSGVEEIKGHPFFE [S5P] | 1.47
FCIDTENRIGNSGVEEIKGHPFFE [S5T] | 2.25
FCIDHENRIGNSGVEEIKGHPFFE [S5H] | 2.5
FCIDGENRIGNSGVEEIKGHPFFE [S5G] | 2.53
FCIDFENRIGNSGVEEIKGHPFFE [S5F] | 2.3
FCIDRENRIGNSGVEEIKGHPFFE [S5R] | 2.21
FCIDEENRIGNSGVEEIKGHPFFE [S5E] | 3.39
FCIDMENRIGNSGVEEIKGHPFFE [S5M] | 2.12
FCIDVENRIGNSGVEEIKGHPFFE [S5V] | 1.9
FCIDKENRIGNSGVEEIKGHPFFE [S5K] | 1.9
FCIDCENRIGNSGVEEIKGHPFFE [S5C] | 2
FCIDAENRIGNSGVEEIKGHPFFE [S5A] | 1.95
FCIDIENRIGNSGVEEIKGHPFFE [S5I] | 2.44
FCIDLENRIGNSGVEEIKGHPFFE [S5L] | 1.06
FCIDNENRIGNSGVEEIKGHPFFE [S5N] | 2.4
FCIDYENRIGNSGVEEIKGHPFFE [S5Y] | 1.88
FCIDDENRIGNSGVEEIKGHPFFE [S5D] | 2.61
FCIDQENRIGNSGVEEIKGHPFFE [S5Q] | 2.49
FCADSENRIGNSGVEEIKGHPFFE [I3A] | 2.04
